Reference: patent publication US7786356B2, “Method for the production of calendic acid, a fatty acid containing delta 8,10,12 conjugated double bonds and related fatty acids having a modification at the delta 9 position” (E.I. du Pont de Nemours and Company, priority 1999, dated 2010)

System: somatic soybean embryos
Experiment: Production of calendic acid in somatic soybean embryos expressing CalFad2-1 or CalFad2-2
Type: cell-based
Settings: single somatic embryos
Source text: The open-reading frames of these cDNAs were amplified by PCR in order generate the appropriate flanking restriction enzyme sites for cloning into the soybean expression vector. The oligonucleotide primers used for amplification of the CalFad2-1 open-reading frame were: 5′-ttgcggccgc[…]-3′ (sense, SEQ ID NO:18) and 5′-ttgcggccg[…]-3′ (antisense, SEQ ID NO:19). The oligonucleotide primers used for amplification of the CalFad2-2 coding sequence were: 5′-agcggccgcTATACCATGGGCAAG-3′ (sense, SEQ ID NO:20) and 5′-tgcggccgcTATGTTAAACTTC-3′ (antisense, SEQ ID NO:21). [Note: The sequences shown in lower case contain an added NotI site along with additional bases to facilitate restriction enzyme digestion.] The template was the cDNA corresponding to either EST ecs1c.pk009.n14 (CalFad2-1) or EST ecs1c.pk08.a24 (CalFad2-2), and Pfu polymerase (Stratagene) was used for the amplification reactions. The resulting PCR products were subcloned into the intermediate vector pCR-Script AMP SK(+) (Stratagene) according to the manufacturer's protocol. The amplified CalFad2-1 and CalFad2-2 coding sequences were then released with NotI digestion and then subcloned into the corresponding site of the soybean expression vector pKS67.
The PCR amplified coding sequences of CalFad2-1 and CalFa2-2 were fused with the β-conglycinin promoter and phaseolin termination sequences in vector pKS67 was transformed into somatic soybean embryos as follows. To induce somatic embryos, cotyledons, 3-5 mm in length dissected from surface sterilized, immature seeds of a soybean cultivar A2872 or JACK-910 were cultured in the light or dark at 26° C. on an appropriate agar medium for 6-10 weeks. Somatic embryos that produce secondary embryos were then excised and placed into a suitable liquid medium. After repeated selection for clusters of somatic embryos that multiplied as early, globular staged embryos, the suspensions were maintained as described below.
Soybean embryogenic suspension cultures were maintained in 35 mL liquid media on a rotary shaker, 150 rpm, at 26° C. with florescent lights on a 16:8 hour day/night schedule. Cultures were subcultured every two weeks by inoculating approximately 35 mg of tissue into 35 mL of liquid medium.
Soybean embryogenic suspension cultures were then transformed with the vector pKS67 containing the coding sequence for CalFad2-1 and CalFad2-2 by the method of particle gun bombardment (Klein et al. (1987) Nature (London) 327:70, U.S. Pat. No. 4,945,050). A Du Pont Biolisticä PDS1000/HE instrument (helium retrofit) was used for these transformations.
To […] of a 60 mg/mL […] gold particle suspension were added (in order): 5 mL DNA (1 mg/mL), 20 ml spermidine (0.1 M), and […] CaCl2 (2.5 M). The particle preparation was then agitated for three minutes, spun in a microfuge for 10 seconds and the supernatant removed. The DNA-coated particles were then washed once in 400 mL 70% ethanol and resuspended in 40 mL of anhydrous ethanol. The DNA/particle suspension was sonicated three times for one second each. Five mL of the DNA-coated gold particles was then loaded on each macro carrier disk.
Approximately 300-400 mg of a two-week-old suspension culture was placed in an empty 60×15-mm petri dish and the residual liquid removed from the tissue with a pipette. For each transformation experiment, approximately 5 to 10 plates of tissue were bombarded. Membrane rupture pressure was set at 1100 psi and the chamber was evacuated to a vacuum of 28 inches mercury. The tissue was placed approximately 3.5 inches away from the retaining screen and bombarded three times. Following bombardment, the tissue was divided in half and placed back into liquid and cultured as described above.
Five to seven days post bombardment, the liquid media was exchanged with fresh media, and eleven to twelve days post bombardment with fresh media containing […] hygromycin. This selective media was refreshed weekly. […]

[1] = n = 5, ± standard deviation, weight % of total fatty acids

B1: CalFad2-1: Calendula officinalis fatty acid modifying enzyme (cDNA SEQ ID NO:1, protein SEQ ID NO:2) forming conjugated double bonds at delta-9 position (protein, listed as Calendula officinalis)
chain: MGKGASNKKVLERVPITKPPFEYNDLKKAVPPHCFSRPLFRSFYFLLHDIIVTCILFYVASNYIPMLPGFLSYIVWPVYWISQGVFLGRLWMIGHECGHHSFSNYRWVDDSVGFLIHTATLTPYFSFKYSHRNHHAHTNSMEYDEVHIPKRKSEALDLYFEFLGNNPMGLMITMLCKLTFGYAAYIMFNYTGKKHKSGGLASHFYPQSPLFNDSERNHVLFSDVGICIVLYACYRIVMVTGAMSAFYVYGIPWVIMSAILFAATYLQHTHPSIPHYDTTEWNWLRGALSTIDRDLGFFNMNKTHYHVIHHLFPVIPEYHAQEATEAIKPILGQYYKYDGTPFLKALWREMKDCIYVESDQGQKKQGIYWFKNKI
B1 was tested, and the “Other, Fatty Acid Weight %” value (n = 5, weight % of total fatty acids) was “≦1.3 Weight %”, the “16:0, Fatty Acid Weight %” value [1] was 12.2 ± 1.0 Weight % and the “18:0, Fatty Acid Weight %” value [1] was 3.5 ± 0.9 Weight %. The “18:1, Fatty Acid Weight %” value [1] was 9.0 ± 1.5 Weight %, the “18:2, Fatty Acid Weight %” value [1] was 52.2 ± 2.4 Weight % and the “18:3, Fatty Acid Weight %” value [1] was 18.8 ± 3.0 Weight %. The “Calendic Acid, Fatty Acid Weight %” value [1] was 3.1 ± 1.0 Weight %.
